Test results from publication PMC10275869.

How the values were obtained:
Assay in all cases: SEC; 100-200 μg of protein on a Superose 6 Increase 10/300GL column
[1] = target: LayV F clamp2 (prefusion Langya virus fusion glycoprotein ectodomain stabilised with the clamp2 molecular clamp) (Langya virus)
[2] = target: unstabilised LayV F (ectodomain with C-Tag, without clamp2) (Langya virus)
[3] = target: unstabilised MojV F (ectodomain with C-Tag, without clamp2) (Mòjiāng virus)

## LayV F clamp2 (prefusion Langya virus fusion glycoprotein ectodomain stabilised with the clamp2 molecular clamp) (domain or fragment)
[1]
  stoichiometry N: 3

## unstabilised LayV F (ectodomain with C-Tag, without clamp2) (domain or fragment)
[2]
  stoichiometry N: 3

## unstabilised MojV F (ectodomain with C-Tag, without clamp2) (domain or fragment)
[3]
  stoichiometry N: 3
